This is an account of results in patent KR20140095558A (dated 2014).

For this assay, the target named is T1, BSA (bovine serum albumin) (bovine (송아지 혈청 알부민), UniProt P02769 25-607).
T1 construct: Negative control antigen of the phage ELISA; also called 송아지 혈청 알부민
The assay can be described thus: phage ELISA, 1% BSA coated, anti-M13 peroxidase, OD 492 nm.

T1 sequence (P02769 25-607 limits assumed): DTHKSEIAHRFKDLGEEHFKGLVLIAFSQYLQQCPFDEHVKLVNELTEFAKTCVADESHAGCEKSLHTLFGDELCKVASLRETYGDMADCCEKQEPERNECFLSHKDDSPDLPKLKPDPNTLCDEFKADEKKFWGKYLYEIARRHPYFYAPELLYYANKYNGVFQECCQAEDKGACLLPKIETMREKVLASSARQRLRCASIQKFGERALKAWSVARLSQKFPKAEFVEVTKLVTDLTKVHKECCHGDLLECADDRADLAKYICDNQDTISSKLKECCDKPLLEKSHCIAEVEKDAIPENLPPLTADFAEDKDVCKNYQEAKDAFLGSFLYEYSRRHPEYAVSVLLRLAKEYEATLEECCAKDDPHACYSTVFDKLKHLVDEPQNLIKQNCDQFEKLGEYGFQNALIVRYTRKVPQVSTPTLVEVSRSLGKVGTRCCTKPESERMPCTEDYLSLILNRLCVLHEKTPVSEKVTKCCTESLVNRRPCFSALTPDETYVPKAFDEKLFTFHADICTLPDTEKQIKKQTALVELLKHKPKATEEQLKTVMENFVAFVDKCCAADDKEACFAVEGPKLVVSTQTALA

B1: SC06-409 (scFv)
scFv: EVQLVQSGAEVKKPGESLKISCKGSGYSFTNYWIGWVRQMPGKGLEWMGIIYPGDSDTRYSPSFQGQVTISADKSISTAYLQWSSLKASDTAMYYCARHTQNKNGMNTFDIWGQGTMVTVSSGTGGSGGTGSGTGGSTQSALTQPPSASGSPGQSVTISCTGTSSDIGGYNYVSWYQQHPGKAPKLMIYEVSNRPPGVSNRFSGSKSGNTASLTISGLQAEDEADYYCSSYSTTTTRVIFGGGTKLTVL
Turning to B1, the binding result is recorded as “no binding”.

B2: SC06-089 (scFv)
scFv: EVQLVETGGGLVQPGGSLRLSCAASGFTFSSYSMNWVRQAPGKGLEWVSFISSSSSTIYYADSVKGRFTIARDNAKNSLYLQMNSLRDEDTAVYYCARPVGTGISLFHAFDIWGQGTMVTVSSGTGGSGGTGSGTGGSTQSVLTQPPSVSVAPGQTARITCGGNNIGSKYVHWYQQKPGQAPVLVVYDDSDRPSGIPERFSGSNSGNTATLTISRVEAGDEADFYCQVWDGSSDPVVFGGGTKLTVL
As for B2, the binding result is “no binding”.

B3: SC06-079 (scFv)
scFv: EVQLVESGGGLVQPGGSLRLSCAASGFTFSSYAMSWVRQAPGKGLEWVSAISGTGGSAYYADSVKGRFTISRDNSKNTVYLQMNSLRAEDTAVYYCAKGHSSGTNWGQGTLVTVSSGTGGSGGTGSGTGGSTSYVLTQPPSASGTPGQRVTISCSGSSSNIGSNFVYWYQQLPGTAPKLLIYRNNQRPSGVPDRFSGSKSGTSASLAISGLRSEDEADYYCAAWDDSLSGVLFGGGTQLTVL
For the molecule B3, the binding result is reported as “no binding”.

B4: SC06-198 (scFv)
scFv: QLQLQESGPGLVKPSETLSLTCAVSGYSITSGYYWGWVRQPPGKGLEWIGSIYHTGSTYYNPSLKSRVTISVDTSKNQFSLKLNSLTAADTAVYFCASQSPAFDFWGQGTMVTVSSGTGGSGGTGSGTGGSTQSVLTQPPSVSGAPGQRVTISCTGSSSNIGTGYDVHWYQQLPGTAPKLLIYGNNNRPSGVPDRFSGSKSGTSASLAITGLQAEDEADYYCATWDDSLNGWVFGGGTKLTVP
As for B4, the binding result was “no binding”.

B5: SC06-241 (scFv)
scFv: EVQLVESGGGLVQPGRSLRLSCAASGFTFRSYAMYWVRQAPGKGLEWLALISHDASKMFYADSVKGRFTISRDNSKNTLSLQMNSLTIEDTAVYYCVRERTGYYGAYWGQGTLVTVSSGTGGSGGTGSGTGGSTDIQMTQSPSSLSASVGDRVTLTCRASQGIGTWLAWYQQKPGKAPKLLIYSASSLQSGVPSRFSGSGSGTDFTLSISNLQPEDFATYYCQQANSFPITFGQGTRLEIK
In the case of B5, the binding result is recorded as “no binding”.

B6: SC06-092 (scFv)
scFv: EVQLVESGGGLVQPGRSLRLSCTGSGFTFGDYAMSWFRQAPGKGLEWVGFIRNKAYGGTAEYAASVKDRFIISRDDSKSIAYLQMNSLKTEDTAVYYCVRREYDTGWLDYWGQGTLVTVSSGTGGSGGTGSGTGGSTQSALTQPPSASGSPGQSVTISCTGTSSDVGGYNYVSWYQRHPGKAPKLMIYDVTDRPSGVSNRFSGSKSGNTASLTISGLQAEDEADYYCSSYTSSSTSAVFGGGTKLTVL
As to B6, the binding result is “no binding”.

B7: SC06-077 (scFv)
scFv: QVQLVQSGAEVKKPGSSVKVSCKASGGTFSSYAISWVRQAPGQGLEWMGGIIPIFGTANYAQKFQGRVTITADESTSTAYMELSSLRSEDTAVYYCAREGGVGPAFDIWGQGTMVTVSSGTGGSGGTGSGTGGSTDIQMTQSPDSLAVSLGERATINCKSSQSVLHNSNNKNYLAWYQQKPGQPPKLLIYWASTRESGVPDRFSGSGSGTDFTLTISSLQAEDVAVYYCQQYYGSPYTFGQGTKLEIK
As to B7, the binding result is “no binding”.

B8: SC06-071 (scFv)
scFv: EVQLVESGGGVVQPGRSLRLSCAASGFTFSSYGMHWVRQAPGKGLEWVAMIWSDGSNKYYADSVKGRFTISRDNSKNTLYLQMNSLRVEDTAVYYCASNYGSGSYWGGFDYWGQGTLVTVSSGTGGSGGTGSGTGGSTQSALTQPASVSGSPGQSITISCTGTSSDVGGYNLVSWYQQHPGKAPKLMIYEGSKRPSGVSNRFFGSKSGDTASLTISGLQAEDEADYYCSSYTTSSTHVFGTGTKVTVL
On to B8, for which the binding result is “no binding”.

B9: SC06-078 (scFv)
scFv: EVQLVESGAEVKKPGSSVKVSCKASGGTFSSYAISWVRQAPGQGLEWMGGIIPIFGTANYAQKFQGKVTITADESTSTAYMELSSLRSEDTAVYYCARLSPRYYGMDVWGQGTTVTVSSGTGGSGGTGSGTGGSTQSALTQPRSVSGSPGQSVTISCTGTSSDVGGYNYVSWYQQHPGKAPKLMIYGGSERPSGVSNRFSGSKSGNTASLTISGVQAEDEADYYCSSYTSSGTLLFGGGTQLTVL
B9: the binding result is “no binding”.

B10: SC05-157 (scFv)
scFv: EVQLVESGAEVKKPGESLKISCKGSGYSFTNYWIGWVRQMPGKGLEWMGIVYPGDSDTRYSPSFQGQVTISADKSISTAYLQWSSLKASDTAVYYCARRMAVAGSDAFDIWGQGTMVTVSSGTGGSGGTGSGTGGSTQAVLTQPSSASGTPGQTVTISCSGSTSNIGSHNVNWYQHLPGTAPKLLIYINNKRPSGVPDRFSGSKSGSSASLAISGLQSEDEADYYCAAWDDSLRRPVFGGGTQLTVL
On to B10, for which the binding result is on record as “no binding”.

B11: SC06-402 (scFv)
scFv: QVQLVQSGAEVKKPGESLKISCKGSGYSFTSYWIGWVRQMPGKGLEWMGIIYPGDSDTRYSPSFQGQVTISADKSISTAYLQWSSLKASDTAMYYCARWGGVCSSTSCPNRDAFDIWGQGTMVTVSSGTGGSGGTGSGTGGSTQSALTQPRSVSGSPGQSVTISCTGTSSDVGGYNYVSWYQQHPGKAPKLMIYDVSNRPSGVSNRFSGSKSGNTASLTISGLQAEDEAEFHCSSYRSSGASPVVFGGGTKLTVL
With B11, the binding result is “no binding”.

B12: SC06-087 (scFv)
scFv: EVQLVESGGGLVKPGGSLRLSCAASGFTFSSNSMNWVRQAPGKGLEWVSFISSSSTYIYYADSVKGRFTISRDNAKNSLYLQMNSLRAEDTAVYYCARESAAGISYDAFDIWGQGTMVTVSSGTGGSGGTGSGTGGSTQSALTQPASVSGSPGQSITISCTGTSSDVGGYKYVSWYQQHPGKAPKLMIYEVSNRPSGVSNRFSGSKSGSTASLTISGLQAEDEADYYCSSYTSSSTLGVFGTGTKVTVL
For B12, the binding result is given as “no binding”.

B13: SC05-159 (scFv)
scFv: QVQLVQSGAEVKKPGATVKISCKVSGYTFTDYYMHWVQQAPGKGLEWMGLVDPEDGETIYAEKFQGRVTITADTSTDTAYMELSSLRSDDTAVYYCARAEVMTTINNWYFDLWGRGTLVTVSSGTGGSGGTGSGTGGSTSYVLTQPPSASGTPGQRVTISCSGSSSNIGSNNVSWYQQLPGTAPKLLIYSNNQRPSGVPDRFSGSKSGTSASLAISGLQSEDEADYYCAAWDDSLNGWVFGGGTKLTVL
As to B13, the binding result was “no binding”.

B14: SC06-191 (scFv)
scFv: EVQLVESGGGVVQPGRSLRLSCVASEFTFSNYGMHWVRQAPGKGLEWVAVIWYDGSNEDYADSVKGRFTISRDNSKNTVYLHMNSLRAEDTAVYFCTRGQYSSTWFLDYWGQGTLVTVSSGTGGSGGTGSGTGGSTDIQLTQSPSTLSASVGDRVTITCRASQSISSWLAWYQQKPGKAPKLLIYKASSLETGVPSRFSGSGSGTDFTLTISSLQPEDFATYYCQQANSFPLTFGGGTKVDIK
In the case of B14, the binding result is “no binding”.

B15: SC06-242 (scFv)
scFv: EVQLVESGPGLVKPSETLSLTCTVSGGSISSYYWSWIRQPPGKGLEWIGYIYYTGTTNYNPSLNSRVTISADTSKNQFSLKLSSVTAADTAVYYCARGGQTAGVWGKGTTVTVSSGTGGSGGTGSGTGGSTQSVLTQPPSVSVAPGQTARITCGGYNIGRKSVHWYQQKPGLAPVLVVYDNSDRPSGIPARFSGSNSGNTATLTISGTQAMDEADYYCQAWDRGTAVFGTGTKVTVL
For the molecule B15, the binding result is “no binding”.

B16: SC06-415 (scFv)
scFv: EVQLVESGGGLVQPGRSLRLSCAASGFTFDDYAMHWVRQAPGKGLEWVSGISWNSGSIGYADSVKGRFTISRDNAKNSLYLQMNSLRAEDSAVYYCARGGQRFDFWGQGTLVTVSSGTGGSGGTGSGTGGSTQSALTQPPSASGSPGQSVTISCTGTSSDVGGYNYVSWYQQLPGKAPKLLIYDVNNRPSGVSNRFSGSKSGNTASLTISGLQAEDEAEYYCGSSVGSRLRIFGGGTKLTVL
Consider B16, for which the binding result is “no binding”.

B17: SC06-246 (scFv)
scFv: EVQLVESGGGLIQPGGSLRLSCAASGFTVSSDFMTWVRQAPGRGLEWVSLIYSGGKTNYADSVKGRFTISRDNSRNTLYLQMNSLRAEDTAVYYCARSVCSTISCSKLDDWGQGTLVTVSSGTGGSGGTGSGTGGSTQAVLTQPSSVSVAPGQTARITCGGNNIGRKSVHWYQQKPGLAPVLVVNDNSDRPSGIPARFSGSNSGNTATLTISRVEAGDEADYYCHVWGSSRDHYVFGTGTKVTVL
With B17, the binding result is on record as “no binding”.

B18: SC06-252 (scFv)
scFv: EVQLVETGGGLVQPGGSLRLSCAASGLTFSSYAMSWVRQAPGKGLEWVSALSGSTTFYADSVKGRFTISRDNAKNTLYLQMNSLRAEDTAVYYCARGNYYGMDVWGQGTTVTVSSGTGGSGGTGSGTGGSTSYVLTQPPSASGTPGQRVTISCSGSSSNIGKFYVYWYQQFPGAAPKLLIYSNNQRPSGVPDRFSGSKSGTSASLAISGLQSEDEADYYCAAWDGSLNGYVFGTGTKVTVL
Consider B18, for which the binding result is reported as “no binding”.

B19: SC06-389 (scFv)
scFv: QVQLVQSGAEVKKPGESLKISCKGSGYSFSTYWIGWVRQMPGKGLEWMGIIYPGDSDTRYSPSFQGQVTISADKSISTAHLQWSSLKASDTAMYYCARPGPRGYNHGFDYWGQGTLVTVSSGTGGSGGTGSGTGGSTSSELTQDPAESVALGQTVKITCQGDSLRRYYASWYQQKPGQAPVLVIYGKNNRPSGIPDRFSGSRSGNTASLTITGAQAEDEAVYYCNSRDSSGNSVVFGGGTKLTVL
Regarding B19, the binding result is listed as “no binding”.

B20: SC06-388 (scFv)
scFv: EVQLVETGAEVKKPGESLRISCKGSGYSFTSYWIAWVRQMPGKGLEWMGVIYPGDSDARYSPSFQGQVTMSVDKSISTAYLQWSSLKASDTAMYYCAKLRSKNTGLDYWGQGTLVTVSSGTGGSGGTGSGTGGSTQSALTQPPSASGSPGQSVTISCTGTSSDVGGYNFVSWYQQHPGKAPKLMIYEVSNRPSGVPDRFSGSKSGNTASLTVSGLQAEDEADYYCSSYAGNNNLAFGGGTQLTVL
For the molecule B20, the binding result is reported as “no binding”.
